Reference: article PMC7367873, “Dissecting the sequence determinants for dephosphorylation by the catalytic subunits of phosphatases PP1 and PP2A” (Nature Communications, 2020)

B1: SMC3 (protein, UniProt Q9UQE7 1-1217, looked up)
Structural maintenance of …: MYIKQVIIQGFRSYRDQTIVDPFSSKHNVIVGRNGSGKSNFFYAIQFVLSDEFSHLRPEQRLALLHEGTGPRVISAFVEIIFDNSDNRLPIDKEEVSLRRVIGAKKDQYFLDKKMVTKNDVMNLLESAGFSRSNPYYIVKQGKINQMATAPDSQRLKLLREVAGTRVYDERKEESISLMKETEGKREKINELLKYIEERLHTLEEEKEELAQYQKWDKMRRALEYTIYNQELNETRAKLDELSAKRETSGEKSRQLRDAQQDARDKMEDIERQVRELKTKISAMKEEKEQLSAERQEQIKQRTKLELKAKDLQDELAGNSEQRKRLLKERQKLLEKIEEKQKELAETEPKFNSVKEKEERGIARLAQATQERTDLYAKQGRGSQFTSKEERDKWIKKELKSLDQAINDKKRQIAAIHKDLEDTEANKEKNLEQYNKLDQDLNEVKARVEELDRKYYEVKNKKDELQSERNYLWREENAEQQALAAKREDLEKKQQLLRAATGKAILNGIDSINKVLDHFRRKGINQHVQNGYHGIVMNNFECEPAFYTCVEVTAGNRLFYHIVDSDEVSTKILMEFNKMNLPGEVTFLPLNKLDVRDTAYPETNDAIPMISKLRYNPRFDKAFKHVFGKTLICRSMEVSTQLARAFTMDCITLEGDQVSHRGALTGGYYDTRKSRLELQKDVRKAEEELGELEAKLNENLRRNIERINNEIDQLMNQMQQIETQQRKFKASRDSILSEMKMLKEKRQQSEKTFMPKQRSLQSLEASLHAMESTRESLKAELGTDLLSQLSLEDQKRVDALNDEIRQLQQENRQLLNERIKLEGIITRVETYLNENLRKRLDQVEQELNELRETEGGTVLTATTSELEAINKRVKDTMARSEDLDNSIDKTEAGIKELQKSMERWKNMEKEHMDAINHDTKELEKMTNRQGMLLKKKEECMKKIRELGSLPQEAFEKYQTLSLKQLFRKLEQCNTELKKYSHVNKKALDQFVNFSEQKEKLIKRQEELDRGYKSIMELMNVLELRKYEAIQLTFKQVSKNFSEVFQKLVPGGKATLVMKKGDVEGSQSQDEGEGSGESERGSGSQSSVPSVDQFTGVGIRVSFTGKQGEMREMQQLSGGQKSLVALALIFAIQKCDPAPFYLFDEIDQALDAQHRKAVSDMIMELAVHAQFITTTFRPELLESADKFYGVKFRNKVSHIDVITAEMAKDFVEDDTTHG
B2: MYO1E (protein, UniProt Q12965 1-1108, looked up)
Unconventional myosin-Ie: MGSKGVYQYHWQSHNVKHSGVDDMVLLSKITENSIVENLKKRYMDDYIFTYIGSVLISVNPFKQMPYFGEKEIEMYQGAAQYENPPHIYALADNMYRNMIIDRENQCVIISGESGAGKTVAAKYIMSYISRVSGGGTKVQHVKDIILQSNPLLEAFGNAKTVRNNNSSRFGKYFEIQFSPGGEPDGGKISNFLLEKSRVVMRNPGERSFHIFYQLIEGASAEQKHSLGITSMDYYYYLSLSGSYKVDDIDDRREFQETLHAMNVIGIFAEEQTLVLQIVAGILHLGNISFKEVGNYAAVESEEFLAFPAYLLGINQDRLKEKLTSRQMDSKWGGKSESIHVTLNVEQACYTRDALAKALHARVFDFLVDSINKAMEKDHEEYNIGVLDIYGFEIFQKNGFEQFCINFVNEKLQQIFIELTLKAEQEEYVQEGIRWTPIEYFNNKIVCDLIENKVNPPGIMSILDDVCATMHAVGEGADQTLLQKLQMQIGSHEHFNSWNQGFIIHHYAGKVSYDMDGFCERNRDVLFMDLIELMQSSELPFIKSLFPENLQADKKGRPTTAGSKIKKQANDLVSTLMKCTPHYIRCIKPNETKKPRDWEESRVKHQVEYLGLKENIRVRRAGYAYRRIFQKFLQRYAILTKATWPSWQGEEKQGVLHLLQSVNMDSDQFQLGRSKVFIKAPESLFLLEEMRERKYDGYARVIQKSWRKFVARKKYVQMREEASDLLLNKKERRRNSINRNFIGDYIGMEEHPELQQFVGKREKIDFADTVTKYDRRFKGVKRDLLLTPKCLYLIGREKVKQGPDKGLVKEVLKRKIEIERILSVSLSTMQDDIFILHEQEYDSLLESVFKTEFLSLLAKRYEEKTQKQLPLKFSNTLELKLKKENWGPWSAGGSRQVQFHQGFGDLAVLKPSNKVLQVSIGPGLPKNSRPTRRNTTQNTGYSSGTQNANYPVRAAPPPPGYHQNGVIRNQYVPYPHAPGSQRSNQKSLYTSMARPPLPRQQSTSSDRVSQTPESLDFLKVPDQGAAGVRRQTTSRPPPAGGRPKPQPKPKPQVPQCKALYAYDAQDTDELSFNANDIIDIIKEDPSGWWTGRLRGKQGLFPNNYVTKI
B3: KIFC3 (protein, UniProt Q9BVG8 1-833, looked up)
Kinesin-like protein KIFC3: MVPSRRTWNLGATPSLRGLWRVGRAPEPEPGMARPAPAPASPAARPFPHTGPGRLRTGRGKDTPVCGDEDSSARSAARPALAQCRALSVDWAGPGSPHGLYLTLQVEHLKEKLISQAQEVSRLRSELGGTDLEKHRDLLMVENERLRQEMRRCEAELQELRTKPAGPCPGCEHSQESAQLRDKLSQLQLEMAESKGMLSELNLEVQQKTDRLAEVELRLKDCLAEKAQEEERLSRRLRDSHETIASLRAQSPPVKYVIKTVEVESSKTKQALSESQARNQHLQEQVAMQRQVLKEMEQQLQSSHQLTARLRAQIAMYESELERAHGQMLEEMQSLEEDKNRAIEEAFARAQVEMKAVHENLAGVRTNLLTLQPALRTLTNDYNGLKRQVRGFPLLLQEALRSVKAEIGQAIEEVNSNNQELLRKYRRELQLRKKCHNELVRLKGNIRVIARVRPVTKEDGEGPEATNAVTFDADDDSIIHLLHKGKPVSFELDKVFSPQASQQDVFQEVQALVTSCIDGFNVCIFAYGQTGAGKTYTMEGTAENPGINQRALQLLFSEVQEKASDWEYTITVSAAEIYNEVLRDLLGKEPQEKLEIRLCPDGSGQLYVPGLTEFQVQSVDDINKVFEFGHTNRTTEFTNLNEHSSRSHALLIVTVRGVDCSTGLRTTGKLNLVDLAGSERVGKSGAEGSRLREAQHINKSLSALGDVIAALRSRQGHVPFRNSKLTYLLQDSLSGDSKTLMVVQVSPVEKNTSETLYSLKFAERVRSVELGPGLRRAELGSWSSQEHLEWEPACQTPQPSARAHSAPSSGTSSRPGSIRRKLQPSGKSRPLPV
B4: TFCP2 (protein, UniProt Q12800 1-502, looked up)
Alpha-globin transcription …: MAWALKLPLADEVIESGLVQDFDASLSGIGQELGAGAYSMSDVLALPIFKQEESSLPPDNENKILPFQYVLCAATSPAVKLHDETLTYLNQGQSYEIRMLDNRKLGELPEINGKLVKSIFRVVFHDRRLQYTEHQQLEGWRWNRPGDRILDIDIPMSVGIIDPRANPTQLNTVEFLWDPAKRTSVFIQVHCISTEFTMRKHGGEKGVPFRVQIDTFKENENGEYTEHLHSASCQIKVFKPKGADRKQKTDREKMEKRTPHEKEKYQPSYETTILTECSPWPEITYVNNSPSPGFNSSHSSFSLGEGNGSPNHQPEPPPPVTDNLLPTTTPQEAQQWLHRNRFSTFTRLFTNFSGADLLKLTRDDVIQICGPADGIRLFNALKGRMVRPRLTIYVCQESLQLREQQQQQQQQQQKHEDGDSNGTFFVYHAIYLEELTAVELTEKIAQLFSISPCQISQIYKQGPTGIHVLISDEMIQNFQEEACFILDTMKAETNDSYHIILK
B5: GEMIN8 (protein, UniProt Q9NWZ8 1-242, looked up)
Gem-associated protein 8: MAAVKASTSKATRPWYSHPVYARYWQHYHQAMAWMQSHHNAYRKAVESCFNLPWYLPSALLPQSSYDNEAAYPQSFYDHHVAWQDYPCSSSHFRRSGQHPRYSSRIQASTKEDQALSKEEEMETESDAEVECDLSNMEITEELRQYFAETERHREERRRQQQLDAERLDSYVNADHDLYCNTRRSVEAPTERPGERRQAEMKRLYGDSAAKIQAMEAAVQLSFDKHCDRKQPKYWPVIPLKF
B6: ILF3 (protein, UniProt Q12906 1-894, looked up)
Interleukin enhancer-binding …: MRPMRIFVNDDRHVMAKHSSVYPTQEELEAVQNMVSHTERALKAVSDWIDEQEKGSSEQAESDNMDVPPEDDSKEGAGEQKTEHMTRTLRGVMRVGLVAKGLLLKGDLDLELVLLCKEKPTTALLDKVADNLAIQLAAVTEDKYEILQSVDDAAIVIKNTKEPPLSLTIHLTSPVVREEMEKVLAGETLSVNDPPDVLDRQKCLAALASLRHAKWFQARANGLKSCVIVIRVLRDLCTRVPTWGPLRGWPLELLCEKSIGTANRPMGAGEALRRVLECLASGIVMPDGSGIYDPCEKEATDAIGHLDRQQREDITQSAQHALRLAAFGQLHKVLGMDPLPSKMPKKPKNENPVDYTVQIPPSTTYAITPMKRPMEEDGEEKSPSKKKKKIQKKEEKAEPPQAMNALMRLNQLKPGLQYKLVSQTGPVHAPIFTMSVEVDGNSFEASGPSKKTAKLHVAVKVLQDMGLPTGAEGRDSSKGEDSAEETEAKPAVVAPAPVVEAVSTPSAAFPSDATAEQGPILTKHGKNPVMELNEKRRGLKYELISETGGSHDKRFVMEVEVDGQKFQGAGSNKKVAKAYAALAALEKLFPDTPLALDANKKKRAPVPVRGGPKFAAKPHNPGFGMGGPMHNEVPPPPNLRGRGRGGSIRGRGRGRGFGGANHGGYMNAGAGYGSYGYGGNSATAGYSQFYSNGGHSGNASGGGGGGGGGSSGYGSYYQGDNYNSPVPPKHAGKKQPHGGQQKPSYGSGYQSHQGQQQSYNQSPYSNYGPPQGKQKGYNHGQGSYSYSNSYNSPGGGGGSDYNYESKFNYSGSGGRSGGNSYGSGGASYNPGSHGGYGGGSGGGSSYQGKQGGYSQSNYNSPGSGQNYSGPPSSYQSSQGGYGRNADHSMNYQYR
B7: LSM12 (protein, UniProt Q3MHD2 2-195, looked up)
Protein LSM12: AAPPGEYFSVGSQVSCRTCQEQRLQGEVVAFDYQSKMLALKCPSSSGKPNHADILLINLQYVSEVEIINDRTETPPPLASLNVSKLASKARTEKEEKLSQAYAISAGVSLEGQQLFQTIHKTIKDCKWQEKNIVVMEEVVITPPYQVENCKGKEGSALSHVRKIVEKHFRDVESQKILQRSQAQQPQKEAALSS

System: GFP-14-3-3β
Assay: GFP-14-3-3β co-IP with LC-MS/MS, untreated GFP-14-3-3β versus GFP control (14-3-3 interactome)
Type: binding, human
Details: GFP-14-3-3β co-IP LC-MS/MS; untreated vs GFP; student's t-test; label-free quantification, 3 replicates each

Molecule	Difference (log2), untreated vs GFP [log2]
B1	0.1297
B2	1.374
B3	1.361
B4	0.6477
B5	0.1049
B6	3.029

Same assay, conditions: log2 difference; pairwise comparison untreated vs GFP, label-free quantification, 3 replicates each

Molecule	Difference (log2), untreated vs GFP
B7	1.227

System: GFP-14-3-3β and its binding proteins
Assay: GFP-14-3-3β co-IP with LC-MS/MS label-free quantification, untreated versus PP1c-treated
Parameters: species or system human
Details: GFP-14-3-3β co-IP LC-MS/MS; PP1 vs untreated; student's t-test; label-free quantification, 3 replicates each

Molecule	Difference (log2), PP1 vs untreated [log2]
B1	-0.1648
B2	-0.1954
B3	-0.1977
B4	-0.2131
B5	-0.2137
B6	-0.2231

Same assay, conditions: log2 difference; pairwise comparison PP1 vs untreated, label-free quantification, 3 replicates each

Molecule	Difference (log2), PP1 vs untreated
B7	1.729
